Laboratory results from patent publication US20190184007A1.

Biological target: T1, HLA DQA1*0101:DQB1*0501
T1 chain 1: not shown
T1 chain 2: not shown
Assay: REVEAL class II binding assay (cell-free)

First: RELILYDKEEIRRIWRQANNG (modifications not checked) [Peptide #1 (X179-A NP fragment)]
Second: SGAAGAAVKGVGTMV (modifications not checked) [Peptide #6 (Common CP sequence)]
The REVEAL 0 hrs (% of positive control signal) of the first is higher: 27.8 for the first, 0 for the second.

Going from ALNRGSGSGIITSDA (modifications not checked) [Peptide #17 (Hemagglutinin fragment)] to RELILYDKEEMRRIWRQANNG (modifications not checked) [Peptide #2 (X181 NP fragment)], the REVEAL 0 hrs (% of positive control signal) rises from 0 to 1.1.

Going from IDPFKLLQNSQVVSL (modifications not checked) [Peptide #8 (Common CP sequence)] to VGKMIGGIGRFYIQM (modifications not checked) [Peptide #5 (Common CP sequence)], the REVEAL 0 hrs (% of positive control signal) rises from 0 to 43.6.

ALSRGFGSGIITSNA (modifications not checked) [Peptide #18 (Hemagglutinin fragment)] and EKATNPIVPSFDMSN (modifications not checked) [Peptide #7 (Common CP sequence)] are the same in REVEAL 0 hrs (% of positive control signal): 0 for the first, 0 for the second.

LILYDKEEMRRIWRQ (modifications not checked) [Peptide #4 (X181 NP fragment)] and AMERNAGSGIIISDT (modifications not checked) [Peptide #16 (Hemagglutinin fragment)] are the same in REVEAL 0 hrs (% of positive control signal): 0.1 for the first, 0.1 for the second.

LTVAAWSVKTSPLNM (modifications not checked) [Peptide #13 (Reverse of #10)] gave an REVEAL 0 hrs (% of positive control signal) of 0.3.

Compared with RELILYDKEEIRRIWRQANNG (modifications not checked) [Peptide #1 (X179-A NP fragment)], SGAAGAAVKGVGTMV (modifications not checked) [Peptide #6 (Common CP sequence)] is lower in REVEAL 24 hours (% of positive control signal): 7.4 for the first, 0 for the second.

Going from ALNRGSGSGIITSDA (modifications not checked) [Peptide #17 (Hemagglutinin fragment)] to RELILYDKEEMRRIWRQANNG (modifications not checked) [Peptide #2 (X181 NP fragment)], the REVEAL 24 hours (% of positive control signal) rises from 0 to 1.

Compared with IDPFKLLQNSQVVSL (modifications not checked) [Peptide #8 (Common CP sequence)], VGKMIGGIGRFYIQM (modifications not checked) [Peptide #5 (Common CP sequence)] is higher in REVEAL 24 hours (% of positive control signal): 0 for the first, 13.9 for the second.

ALSRGFGSGIITSNA (modifications not checked) [Peptide #18 (Hemagglutinin fragment)] and EKATNPIVPSFDMSN (modifications not checked) [Peptide #7 (Common CP sequence)] are the same in REVEAL 24 hours (% of positive control signal): 0 for the first, 0 for the second.

LILYDKEEMRRIWRQ (modifications not checked) [Peptide #4 (X181 NP fragment)] and AMERNAGSGIIISDT (modifications not checked) [Peptide #16 (Hemagglutinin fragment)] are the same in REVEAL 24 hours (% of positive control signal): 0.1 for the first, 0.1 for the second.

LTVAAWSVKTSPLNM (modifications not checked) [Peptide #13 (Reverse of #10)] showed an REVEAL 24 hours (% of positive control signal) of 0.3.

SGAAGAAVKGVGTMV (modifications not checked) [Peptide #6 (Common CP sequence)] and ALNRGSGSGIITSDA (modifications not checked) [Peptide #17 (Hemagglutinin fragment)] are the same in Stability index: 0 for the first, 0 for the second.

Compared with IDPFKLLQNSQVVSL (modifications not checked) [Peptide #8 (Common CP sequence)], VGKMIGGIGRFYIQM (modifications not checked) [Peptide #5 (Common CP sequence)] is higher in Stability index: 0 for the first, 6.4 for the second.

ALSRGFGSGIITSNA (modifications not checked) [Peptide #18 (Hemagglutinin fragment)] and EKATNPIVPSFDMSN (modifications not checked) [Peptide #7 (Common CP sequence)] are the same in Stability index: 0 for the first, 0 for the second.

LILYDKEEMRRIWRQ (modifications not checked) [Peptide #4 (X181 NP fragment)] and AMERNAGSGIIISDT (modifications not checked) [Peptide #16 (Hemagglutinin fragment)] are the same in Stability index: 0.1 for the first, 0.1 for the second.

Work on LTVAAWSVKTSPLNM (modifications not checked) [Peptide #13 (Reverse of #10)] yielded a Stability index of 0.4.

Biological target: T2, HLA DQA1*0102:DQB1*0602, P01920
T2 chain 1: not shown
T2 chain 2: not shown
Assay: REVEAL class II binding assay (cell-free)

Compared with RELILYDKEEIRRIWRQANNG (modifications not checked) [Peptide #1 (X179-A NP fragment)], SGAAGAAVKGVGTMV (modifications not checked) [Peptide #6 (Common CP sequence)] is lower in REVEAL 0 hrs (% of positive control signal): 24.4 for the first, 0.1 for the second.

Going from ALNRGSGSGIITSDA (modifications not checked) [Peptide #17 (Hemagglutinin fragment)] to IDPFKLLQNSQVVSL (modifications not checked) [Peptide #8 (Common CP sequence)], the REVEAL 0 hrs (% of positive control signal) rises from 0 to 0.1.

Going from VGKMIGGIGRFYIQM (modifications not checked) [Peptide #5 (Common CP sequence)] to ALSRGFGSGIITSNA (modifications not checked) [Peptide #18 (Hemagglutinin fragment)], the REVEAL 0 hrs (% of positive control signal) falls from 77.3 to 0.

First: EKATNPIVPSFDMSN (modifications not checked) [Peptide #7 (Common CP sequence)]
Second: LILYDKEEMRRIWRQ (modifications not checked) [Peptide #4 (X181 NP fragment)]
The REVEAL 0 hrs (% of positive control signal) of the first is lower: 0 for the first, 0.5 for the second.

Going from AMERNAGSGIIISDT (modifications not checked) [Peptide #16 (Hemagglutinin fragment)] to LTVAAWSVKTSPLNM (modifications not checked) [Peptide #13 (Reverse of #10)], the REVEAL 0 hrs (% of positive control signal) rises from 0 to 0.9.

Going from RELILYDKEEIRRIWRQANNG (modifications not checked) [Peptide #1 (X179-A NP fragment)] to SGAAGAAVKGVGTMV (modifications not checked) [Peptide #6 (Common CP sequence)], the REVEAL 24 hours (% of positive control signal) falls from 16.9 to 0.1.

First: ALNRGSGSGIITSDA (modifications not checked) [Peptide #17 (Hemagglutinin fragment)]
Second: RELILYDKEEMRRIWRQANNG (modifications not checked) [Peptide #2 (X181 NP fragment)]
The REVEAL 24 hours (% of positive control signal) of the first is lower: 0 for the first, 0.5 for the second.

First: IDPFKLLQNSQVVSL (modifications not checked) [Peptide #8 (Common CP sequence)]
Second: VGKMIGGIGRFYIQM (modifications not checked) [Peptide #5 (Common CP sequence)]
The REVEAL 24 hours (% of positive control signal) of the first is lower: 0.1 for the first, 52.3 for the second.

ALSRGFGSGIITSNA (modifications not checked) [Peptide #18 (Hemagglutinin fragment)] and EKATNPIVPSFDMSN (modifications not checked) [Peptide #7 (Common CP sequence)] are the same in REVEAL 24 hours (% of positive control signal): 0 for the first, 0 for the second.

Going from LILYDKEEMRRIWRQ (modifications not checked) [Peptide #4 (X181 NP fragment)] to AMERNAGSGIIISDT (modifications not checked) [Peptide #16 (Hemagglutinin fragment)], the REVEAL 24 hours (% of positive control signal) falls from 0.4 to 0.

LTVAAWSVKTSPLNM (modifications not checked) [Peptide #13 (Reverse of #10)] gave an REVEAL 24 hours (% of positive control signal) of 0.4.

First: RELILYDKEEIRRIWRQANNG (modifications not checked) [Peptide #1 (X179-A NP fragment)]
Second: SGAAGAAVKGVGTMV (modifications not checked) [Peptide #6 (Common CP sequence)]
The Stability index of the first is higher: 11.1 for the first, 0.1 for the second.

First: ALNRGSGSGIITSDA (modifications not checked) [Peptide #17 (Hemagglutinin fragment)]
Second: IDPFKLLQNSQVVSL (modifications not checked) [Peptide #8 (Common CP sequence)]
The Stability index of the first is lower: 0 for the first, 0.1 for the second.

Going from VGKMIGGIGRFYIQM (modifications not checked) [Peptide #5 (Common CP sequence)] to ALSRGFGSGIITSNA (modifications not checked) [Peptide #18 (Hemagglutinin fragment)], the Stability index falls from 33 to 0.

Going from EKATNPIVPSFDMSN (modifications not checked) [Peptide #7 (Common CP sequence)] to LILYDKEEMRRIWRQ (modifications not checked) [Peptide #4 (X181 NP fragment)], the Stability index rises from 0 to 0.6.

Compared with AMERNAGSGIIISDT (modifications not checked) [Peptide #16 (Hemagglutinin fragment)], LTVAAWSVKTSPLNM (modifications not checked) [Peptide #13 (Reverse of #10)] is higher in Stability index: 0 for the first, 0.2 for the second.
